B1: purified antigenic protein MF-1 (protein)
chain: PGDPTATAKGNEIPDTLMGYIPWTPELDSGEVCGIPTTFKTRDEWKGKKVVIVSIPGAYTPICHQQHIPPLVKRVDELKAKGVDAVYVIASNDPFVMAAWGNFNNAKDKVVFATDIDLAFSKALGATIDLSAKHFGERTARYALIIDDNKIVDFASDEGDTGKLQNASIDTILTKV
B2: purified antigenic protein MF-2 (protein)
chain: EIGSTIPNATFAYVPYSPELEDHKVCGMPTSFQSHERWKGKKVVIVAVPGAFTPTCTANHVPPYVEKIQELKSKGVDEVVVISANDPFVLSAWGITEHAKDNLTFAQDVNCEFSKHFNATLDLSSKGMGLRTARYALIANDLKVEYFGIDEGEPKQSSAATVLSKL
modifications: N-terminus blocked

What was measured:
[1] = target: IgE antibodies in pooled sera from patients (collection of sera from 10 patients showing high values in RAST method); experiment: RAST cross inhibition, pooled patient sera; competitor: MF-2 immobilised on solid phase
[2] = target: IgE antibodies in pooled sera from patients (collection of sera from 10 patients showing high values in RAST method); experiment: RAST cross inhibition, pooled patient sera; competitor: MF-1 immobilised on solid phase
[3] = target: IgE antibodies in pooled sera from patients (collection of sera from 10 patients showing high values in RAST method); experiment: RAST cross inhibition, pooled patient sera; competitor: MF-4 immobilised on solid phase

Binder	IC50 [1]	relative concentration for 50% inhibition (in brackets; homologous antigen = 1) [1]	IC50 [2]	relative concentration for 50% inhibition (in brackets; homologous antigen = 1) [2]	IC50 [3]	relative concentration for 50% inhibition (in brackets; homologous antigen = 1) [3]
B1	> 100 µg/mL	> 7700	0.038 µg/mL	1	18 µg/mL	290
B2	0.013 µg/mL	1	8.6 µg/mL	230	30 µg/mL	480
